“Also recorded” adds a separate entry of the source. Read-outs that look alike come from different tables or passages of the source.
Columns and labels:
[1] = tested on: ACLT+tMx model of instability-induced OA; assay: ACLT+tMx rat OA model, neo-formation of cartilaginous tissue (Safranin-O quantification); format: in vivo; conditions: for dose at which dose-dependent neo-formation of cartilaginous tissue became significant, medial tibia: FIG. 2b
Protocol: The anterior cruciate ligament transection with resection of the medial meniscus (ACLT+tMx) model of instability-induced OA was performed in male Lewis rats 10-15 weeks of age. Briefly, under anesthesia with isoflurane, the joint capsule of the right knee of each rat was opened, the anterior cruciate and meniscus fixating ligaments were sharply transected, the meniscus was removed and the capsule, muscles and skin closed by sutures. Animals were randomly allocated into 10 groups of n=10 each. The following dosages were investigated: 0, 0.3, 1, 3 and 10 μg per intra-articular injection. Groups 1-5 received one cycle of three single injections at weekly intervals, group 6-10 three single injections at monthly intervals. Intra-articular treatment was started three weeks post-surgery. At this time pathophysiological changes are already mainifest, e.g., cartilage matrix loss. Animals were euthanized 17 weeks after surgery and joints were investigated.

[2] = tested on: medial meniscal tear in the right knee joint; format: in vivo, rat; conditions: for overall morphology: three injections
Protocol: After the sacrifice, the right knee was removed and decalcified in 5% formic acid for 4-6 d before cutting in half in the frontal plane and embedding in paraffin wax. Three sections were cut in 200 μm steps, stained with toluidine blue, and analyzed using ImagePro PIus™ software (Media Cybernetics). In scoring the three sections of the joint, the worst-case scenario for the two halves on each slide was determined for the cartilage lesion as the cartilage degeneration width (μm). This reflects the areas of tibial cartilage lesion in which both chondrocyte and proteoglycan loss extend ≧50% of the cartilage thickness. The measurement was taken over the area of greatest lesion severity in each of the three zones across the tibial surface.
A treatment group Mean±SE for each score and measurement was determined.
Data was analyzed using a one-way analysis of variance (1-way ANOVA) or Kruskal-Wallis test (non-parametric), along with an appropriate multiple comparison post-test. Right knee caliper measurements were compared to left using a Student's t-test. Unless indicated, Bolder BioPATH, Inc. performs statistical analysis on raw (untransformed) data only. […] Significance for all tests was set at p≦0.05. Comparisons were made between each group and the vehicle control group, as well as between pairs.
Male Lewis rats underwent surgery (under anesthesia with isoflurane) to induce a medial meniscal tear in the right knee joint. Animals were dosed IA with vehicle or FGF-18 on one of two different regimens (see table below), then terminated on day 105. Knees had caliper measurements taken at baseline and days 21, 42, 56, 84, and 105. Serum was evaluated for α2macroglobulin levels at baseline and on days 21, and 105, as well as one week after the final dose (day 42 or 84). Right knees were collected for histopathology evaluation.

[3] = tested on: full-thickness defect in the articular cartilage of the trochlear groove; format: in vivo, rabbit; conditions: for ICRS gross cartilage score: mean +/- SE
Text: 60 adult male, naïve, New Zealand White rabbits were used for this study. Animals were approximately 3-4 months of age. Rabbits underwent for creation of the cartilage defect in the right knee. A 2 mm by 6 mm full-thickness defect was made in the articular cartilage of the trochlear groove. The microfracture was created using 18 gauge needles; two 3 mm deep microfractures were made through the subchondral bone at the base of the defect, one proximally and one distally. Each microfracture hole was approximately 1.5 mm in diameter and the holes separated by 2 mm. The experiment consisted of the following six treatment groups, with 10 animals in each group for a total of 60 rabbits (Table 2). Rabbits in Groups 3, 4, 5 and 6 were treated with intra-articular rhFGF-18 in either one cycle of three weekly injections of 100 μg of rhFGF-18 (Group 3 and 5) or one cycle of three monthly injections 100 μg of rhFGF-18 (Group 4 and 6). All animals were euthanized and necropsied 6 months after surgery. [table]

[4] = tested on: rat model of OA (ACLT with tMx); assay: ACLT+tMx rat OA model, intracycle dosing frequencies of sprifermin; format: in vivo
Protocol: The goal of this study was to evaluate the effect of different intracycle dosing frequencies of the same total dosage (3×1 μg) of sprifermin on cartilage volume in a rat model of OA. The anterior cruciate ligament transection (ACLT) with resection of the medial meniscus (tMx) was performed as disclosed in example 1. Joints from male Lister Hooded Rats (200-260 g, Charles River) were used in this study. Animals were euthanized 18 weeks post-surgery.
The changes in the joint are related to clinical assessments in OA (cartilage loss, osteophytes, subchondral sclerosis). One μg sprifermin in saline was injected three times either weekly, every 2nd, every 3rd, every 4th or every 5th week and compared to appropriate vehicle groups. Body weight, joint diameters and clinical health scores were investigated weekly.

[5] = in vivo; cited from earlier work
[6] = Group 4: no microfracture, 100 μg monthly x3
[7] = Group 6: microfracture, 100 μg monthly x3
[8] = microfracture, monthly for three months, non-significant
[9] = microfracture, monthly for three months, significant
[10] = microfracture, weekly for three weeks, significant
[11] = no microfracture, monthly for three months, non-significant
[12] = no microfracture, monthly for three months, significant

B1: trFGF-18: recombinant truncated form of human FGF-18 (170 amino acids, SEQ ID NO: 2), produced in E. coli (protein)
chain: MEENVDFRIHVENQTRARDDVSRKQLRLYQLYSRTSGKHIQVLGRRISARGEDGDKYAQLLVETDTFGSQVRIKGKETEFYLCMNRKGKLVGKPDGTSKECVFIEKVLENNYTALMSAKYSGWYVGFTKKGRPRKGPKTRENQQDVHFMKRYPKGQPELQKPFKYTTVTK
modifications: Recombinant truncated FGF-18(trFGF-18)
[1]; independently of the injection regimen (3 i.a. injections weekly or monthly), FIG. 2a
  dose at which dose-dependent neo-formation of cartilaginous tissue became significant, lateral tibia: 1 μg/joint
[1]; one monthly regimen
  dose at which dose-dependent neo-formation of cartilaginous tissue became significant, medial tibia: 0.3 μg/joint
[1]; one weekly regimen
  dose at which dose-dependent neo-formation of cartilaginous tissue became significant, medial tibia: 1 μg/joint
[2]; 10 μg IA, all regimens
  extent of injury over the tibial surface (histopathology), particularly collagen damage: generally increased
  severity of injury over the tibial surface (histopathology): reducing its severity
[2]; bi-weekly injection scheme, 10 μg IA
  structural benefit: provides interesting structural benefits
[2]; monthly injection scheme, 10 μg IA
  structural benefit (joint scores, tibial cartilage degeneration width; FIGS. 3, 4, 5): highest
[2]; rat, in vivo
  side effects of treatment (histopathology): cartilage hypertrophy, synovitis, and synovial fibrosis
  swelling in the treated knee: significantly increased
[2]; once every 2 weeks (days 21, 35, 49)
  overall morphology: good overall morphology
[2]; once monthly (days 21, 49, 77)
  overall morphology: best overall morphology
[3]; [6]
  ICRS cartilage score: 2.1+/−0.3
  animals with intercondylar groove filled with cartilage (nearly normal to slightly roughened or granular): 6/9
[3]; Group 5: microfracture, 100 μg weekly x3
  ICRS gross cartilage score: 1.9+/−0.3
[3]; [7]
  animals with groove 50% filled up to nearly completely filled with granular to coarsely granular cartilage: 7/10
  animals with intercondylar groove filled with cartilage: 3/10
  ICRS gross cartilage score: 2.4+/−0.2
[3]; [8]
  decrease in total width of the groove lesion: 19%
  decrease in width of the lesion with no viable cartilage: 69%
[3]; [9]
  increase in central MFC thickness: 106%
  increase in summed scores: 76%
  increases (toward normal) in all scored parameters and defect fill percent: 61-97%
[3]; microfracture, weekly for three weeks
  increase in total width of the groove lesion: 5%
[3]; microfracture, weekly for three weeks, non-significant
  decrease in width of the lesion with no viable cartilage: 59%
[3]; [10]
  increase in central MFC thickness: 112%
  increase in summed scores: 53%
  increases (toward normal) in all scored parameters and defect fill percent: 44-69%
[3]; no microfracture, monthly for three months, all sections, generally focal
  degeneration in sections: minimal to severe
[3]; [11]
  increase in other scores: 20-23%
  increase in total width of the groove lesion: 36%
[3]; [12]
  decrease in width of the lesion with no viable cartilage: 94%
  increase in central MFC thickness: 120%
  increase in defect fill percentage: 48%
  increase in the defect fill score: 49%
[3]; rabbit, in vivo
  sections with cartilage hypertrophy: All sections
[4]; 1 μg/joint once every 3rd week, three injections, listed as rhFGF-18
  cartilage volume on medial tibia (FIG. 9): pharmacologically meaningful and statistically significant difference over saline; also recorded: most beneficial structural outcome
[4]; 3 x 1 μg intra-articular injections
  body weight gain: no influence
[4]; 3 x 1 μg/joint
  cartilage denudation (stereology): prevented more or less complete cartilage denudation
[4]; all groups treated with rhFGF-18
  cartilage volume: higher cartilage volume values compared to placebo
[4]; injected every fifth week
  AUC of joint diameters: the same as with saline injections
[4]; injections every 2nd, 3rd or 4th week
  joint diameters, differences between regimens: No significant differences
[4]; injections in week 3, 4 and 5 vs injections in week 3, 8 and 13
  joint diameters (AUC, FIG. 8): significantly higher
[5]
  half-life in the joint: less than 24 hours
